Test results from paper doi:10.1101/2024.03.04.583282 (bioRxiv, 2024).

B1: full-length NATA2 (enzyme, Arabidopsis thaliana, UniProt Q9ZV06 1-236, looked up)
chain: MAAAAPPPPPTAAPEPNMVAPLISPIGHPMFSRIRLATPSDVPFIHKLIHQMAVFERLTHLFSATESGLASTLFTSRPFQSFTVFLLEVSRSPFPATITSSPSPDFTPFFKTHNLDLPIDDPESYNFSPDMLNDVVVAGFVLFFPNYSSFLSKPGFYIEDIFVREPYRRKGFGSMLLTAVAKQAVKMGYGRVEWVVLDWNVNAIKFYEQMGAQILQEWRVCRLTGDALEAFDQVNI
B2: N-terminally truncated NATA1 (19-228, NATA1Δ) (enzyme, Arabidopsis thaliana, UniProt Q9ZV05 19-228, looked up)
chain: TGHRMFSRIRLATPTDVPFIHKLIHQMAVFERLTHLFVATESGLASTLFNSRPFQAVTVFLLEISPSPFPTTHDASSPDFTPFLETHKVDLPIEDPDREKFLPDKLNDVVVAGFVLFFPNYPSFLAKQGFYIEDIFMREPYRRKGFGKLLLTAVAKQAVKLGVGRVEWIVIDWNVNAINFYEQMGAQVFKEWRLCRLTGDALQAIDKLNI
B3: N-terminally truncated NATA2 (30-236, NATA2Δ) (enzyme, Arabidopsis thaliana, UniProt Q9ZV06 30-236, looked up)
chain: MFSRIRLATPSDVPFIHKLIHQMAVFERLTHLFSATESGLASTLFTSRPFQSFTVFLLEVSRSPFPATITSSPSPDFTPFFKTHNLDLPIDDPESYNFSPDMLNDVVVAGFVLFFPNYSSFLSKPGFYIEDIFVREPYRRKGFGSMLLTAVAKQAVKMGYGRVEWVVLDWNVNAIKFYEQMGAQILQEWRVCRLTGDALEAFDQVNI

Target: the molecule itself
Experiment: crystal structure

Stoichiometry N, 2:
B1, B2, B3
